We go through one protein from PMC7427744, “Using singular perturbation theory to determine kinetic parameters in a non-standard coupled enzyme assay” (Journal of Mathematical Biology, 2020).

Substrate in data set [1]: NCCCCC(=O)O
Nature of the data set: purified protein. The data set is classed as biochemical, Cupriavidus necator. The note with it: co-substrate 5 mM pyruvate (assumed saturating), 2.5 mM NAD+, 5 uM PLP, sodium carbonate buffer pH 10, 30 C.

Substrate in data set [2]: CC(N)CC(=O)O
Nature of the data set: purified protein. Type of data set: biochemical, Cupriavidus necator. The note with it: co-substrate 5 mM pyruvate (assumed saturating), 2.5 mM NAD+, 5 uM PLP, sodium carbonate buffer pH 10, 30 C.

Usually Km stands for the substrate concentration at which the rate is half of its maximum.

B1: CnAptA (Cupriavidus necator H16) (protein)
chain: MDAAKTVIPDLDALWMPFTANRQYKAAPRLLASASGMYYTTHDGRQILDGCAGLWCVAAGHCRTEIAEAVARQAATLDYAPPFQMGHPLSFEAATKVAAIMPQGLDRIFFTNSGSESVDTALKIALAYHRARGEGQRTRFIGRERGYHGVGFGGMAVGGIGPNRKAFSANLMPGTDHLPATLNIAEAAFSKGQPQWGAHLADELERILALHDPSNVAAVIVEPLAGSAGVLVPPVGYLEKLREITSKHGILLIFDEVITAFGRLGAATAAERFKVTPDLITMAKAINNAAVPMGAVAVRREVHDTVVNSAAPGAIELLHGYTYSGHPLAAAAAIATLDLYQRENLFGRAAELAPVFEAAVHGVRGAPHVKDIRNYGLVAGIELEPRPGQPGARAYEAFLKCLELGVLVRYTGDILAFSPPLIISEAQIGELFDTVKKALQDIK
notes: E. coli ER2566 host; 47 kDa
Take B1: the results for the Km in “purified protein [1]” and in “purified protein [2]” were 930 µM and 1300 µM, respectively.
